Laboratory results from paper PMC7474084.

Target: Echovirus 30 (E30) mature virion (F-particle) (Echovirus 30)
Test: SPR; BIAcore T100; […]; PBS with 0.05% Tween-20, 25 °C; global fit

Row | Substance | Kd
1 | human CD55, extracellular domain (receptor) | 2000 nM
2 | human FcRn, extracellular domain (from UniProt P55899 24-297; P61769 21-119) (receptor) | 2000 nM
